Laboratory results: patent US7611693B2, “Mechanism-based targeted pancreatic beta cell imaging and therapy” (Board of Regents, The Univerisity of Texas System, priority 2003, dated 2009)

Assays:
[1] = Animal studies: acute toxicity at the given doses; type: in vivo
Description: (§1) The present disclosure addresses at least in part some deficiencies in the prior art by providing novel DTPA-antidiabetic conjugates useful for imaging beta-cell function. Through binding of radiolabeled conjugates, such as ^99mTc-DTPA-antidiabetic conjugates, for example, to pancreatic beta receptors, detectable by gamma scintigraphy, pancreatic function is monitored. Four DTPA-antidiabetic conjugates have been synthesized and evaluated. […] These agents are labeled with isotopes in order to assess beta cell function in diabetic or insulinoma patients both pre- and post-treatment. These compositions and methods are useful to provide early diagnosis as well as monitoring of response of pancreatic disease during treatment.

pancreas [2] = settings: rat, in vivo, iv
Description: FIG. 47 is a graphical representation comparing pancreas uptake for ^99mTc-DTPA and ^99mTc-DTPA-NGN in breast tumor-bearing rats (n=3/time interval, 20 μCi, IV, p=0.11, 0.05, and 0.01).
FIG. 48 is a graphical representation of pancreas to muscle count density ratio of ^99mTc-DTPA and ^99mTc-NGN in breast tumor bearing rats (n=3/time interval, μCi/rat, IV, p=0.19, 0.19, and 0.029).
Male (n=4) New Zealand white rabbits (Raynichols Rabbitry, Lumberton, Tex.) were inoculated with VX-2 cells (rabbit driven mammary squamous cell carcinoma). At day 14 post-inoculation, scintigraphic imaging studies were conducted with ^99mTc-DTPA-NGN (1 mCi, iv). Computer outlined region of interest was used to analyze target-to-nontarget ratios.

pancreatic beta cells = assay: Animal studies: selective imaging of pancreatic beta cells; type: in vivo
Description: as §1

pancreas [3] = assay: Scintigraphic imaging in rodents (planar gamma imaging); type: in vivo; settings: normal rat and 13762 tumor-bearing rats, 300 μCi via tail vein, FIGS. 36-44
Description: Scintigraphic imaging in rodents was conducted as follows:
Female Fischer 344 rates (150-175 g) (Harlan Sprague-Dawley, Inc., Indianapolis, Ind.) were inoculated subcutaneously in the right leg with breast cancer cells (10^6 cells/rat) from the 13762 NF cell line (known as DMBA-induced breast cancer cell line). Scintigraphic imaging was serially performed on day 14 after inoculation. Planar images were obtained at 0.5, 1 and 2 hours after injection of 300 μCi of ^99mTc-DTPA-NGN or ^99mTc-DTPA-GLP via tail vein. Control groups were given ^99mTc-DTPA. Imaging was conducted with a gamma camera from Digirad (2020tc Imager, San Diego, Calif.) equipped with a low-energy parallel-hole collimator. The field of view is 20 cm×20 cm with an edge of 1.3 cm. The intrinsic spatial resolution is 3 mm and the matrix is 64×64. The system is designed for a planar image with sensitivity of 56 counts/second (cps)/MBq and spatial resolution of 7.6 mm.

**Q.** For `CC(C)[C@H]1CC[C@H](C(=O)N[C@H](Cc2ccccc2)C(=O)NCCNC(=O)CN(CCN(CCN(CC(=O)O)CC(=O)NCCNC(=O)[C@@H](Cc2ccccc2)NC(=O)[C@H]2CC[C@H](C(C)C)CC2)CC(=O)O)CC(=O)O)CC1` [DTPA-nateglinide, DTPA-Nateglinide], which acute toxicity [1] is on record?
**A.** no acute toxicity

**Q.** Which “pancreas uptake compared with control groups” value (pancreas [2]) does the source give for `CC(C)[C@H]1CC[C@H](C(=O)N[C@H](Cc2ccccc2)C(=O)NCCNC(=O)CN(CCN(CCN(CC(=O)O)CC(=O)NCCNC(=O)[C@@H](Cc2ccccc2)NC(=O)[C@H]2CC[C@H](C(C)C)CC2)CC(=O)O)CC(=O)O)CC1` [^99mTc-DTPA-nateglinide, metal not drawn] here?
**A.** pancreas uptake was higher than control groups

**Q.** For DTPA-Glipizide, which “selective imaging of pancreatic beta cells” value (pancreatic beta cells) is on record?
**A.** able to selectively image pancreatic beta cells

**Q.** For ^99mTc-DTPA-glipizide, which “visualization of pancreas by planar scintigraphy” value (pancreas [3]) is on record?
**A.** pancreas could be visualized
